Numbered stars: 1 amine (or outer) side, 2 acyl side, 3 side chain; on linkers, the order of the positions; unused ones are H or OH. Square brackets hold non-standard residues; d marks the D form. * marks the point of attachment. CH═CH‑CON(CH2Ph)2 = O=C(/C=C/*)N(Cc1ccccc1)Cc1ccccc1; CH═CH‑CON(CH3)CH2CH2Ph = CN(CCc1ccccc1)C(=O)/C=C/*; AAsp = aza-Asp, O=C(N(CC(=O)[*:3])N[*:1])[*:2]; CH═CH‑CON(CH3)CH2Ph = CN(Cc1ccccc1)C(=O)/C=C/*; Cbz = O=C(OCc1ccccc1)*
T1: Caspase-6 (UniProt P55212)
T1 sequence (looked up): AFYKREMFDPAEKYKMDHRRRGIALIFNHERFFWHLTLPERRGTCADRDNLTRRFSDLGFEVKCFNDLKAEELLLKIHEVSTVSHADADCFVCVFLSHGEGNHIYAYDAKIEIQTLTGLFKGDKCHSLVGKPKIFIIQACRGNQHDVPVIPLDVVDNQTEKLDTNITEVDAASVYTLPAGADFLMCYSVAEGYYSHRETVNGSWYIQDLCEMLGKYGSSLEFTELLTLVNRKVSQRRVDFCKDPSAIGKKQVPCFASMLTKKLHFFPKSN

T2: Caspase-3 (UniProt P42574)
T2 sequence (looked up): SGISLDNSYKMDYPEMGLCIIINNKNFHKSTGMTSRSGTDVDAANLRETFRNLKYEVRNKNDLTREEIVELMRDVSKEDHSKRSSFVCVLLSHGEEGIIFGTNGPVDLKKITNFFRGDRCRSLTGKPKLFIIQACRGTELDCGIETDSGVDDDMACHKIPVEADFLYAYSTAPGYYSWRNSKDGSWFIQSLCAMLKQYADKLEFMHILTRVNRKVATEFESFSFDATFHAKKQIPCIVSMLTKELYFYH

T3: Caspase-7 (UniProt P55210)
T3 sequence (looked up): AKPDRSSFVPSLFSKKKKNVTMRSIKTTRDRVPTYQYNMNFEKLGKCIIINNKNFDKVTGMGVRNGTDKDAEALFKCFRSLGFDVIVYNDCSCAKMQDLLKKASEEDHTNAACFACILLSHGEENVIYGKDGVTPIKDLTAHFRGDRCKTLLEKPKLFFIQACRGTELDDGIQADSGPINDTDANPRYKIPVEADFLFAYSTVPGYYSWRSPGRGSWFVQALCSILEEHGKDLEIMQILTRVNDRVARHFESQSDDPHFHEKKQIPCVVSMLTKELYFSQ

T4: Caspase-10 (UniProt Q92851)
T4 sequence (looked up): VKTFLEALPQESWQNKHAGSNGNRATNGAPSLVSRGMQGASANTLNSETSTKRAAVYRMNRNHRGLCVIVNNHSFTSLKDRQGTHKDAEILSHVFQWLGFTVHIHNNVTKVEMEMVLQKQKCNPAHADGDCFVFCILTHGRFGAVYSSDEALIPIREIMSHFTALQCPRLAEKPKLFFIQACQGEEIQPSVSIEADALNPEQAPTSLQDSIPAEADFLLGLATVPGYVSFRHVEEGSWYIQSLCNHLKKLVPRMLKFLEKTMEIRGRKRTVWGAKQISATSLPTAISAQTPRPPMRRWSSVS

T5: Caspase-2 (UniProt P42575)
T5 sequence (looked up): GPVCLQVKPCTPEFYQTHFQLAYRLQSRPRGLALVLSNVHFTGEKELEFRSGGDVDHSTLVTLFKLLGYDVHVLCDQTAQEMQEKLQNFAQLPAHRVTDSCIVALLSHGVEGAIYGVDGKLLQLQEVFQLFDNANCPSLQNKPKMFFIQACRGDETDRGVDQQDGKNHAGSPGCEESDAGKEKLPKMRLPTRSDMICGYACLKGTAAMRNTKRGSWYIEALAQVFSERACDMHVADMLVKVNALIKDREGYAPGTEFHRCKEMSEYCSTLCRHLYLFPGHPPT

T6: Caspase-6, P55212
T6 chain: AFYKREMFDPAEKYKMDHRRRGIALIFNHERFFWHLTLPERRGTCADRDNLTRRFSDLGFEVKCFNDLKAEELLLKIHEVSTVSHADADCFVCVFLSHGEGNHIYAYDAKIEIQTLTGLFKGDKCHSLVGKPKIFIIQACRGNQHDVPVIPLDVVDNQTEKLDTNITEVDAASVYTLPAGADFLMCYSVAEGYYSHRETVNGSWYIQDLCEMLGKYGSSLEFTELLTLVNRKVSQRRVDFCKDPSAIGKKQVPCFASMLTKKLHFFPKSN

T7: Caspase-8, Q14790
T7 chain: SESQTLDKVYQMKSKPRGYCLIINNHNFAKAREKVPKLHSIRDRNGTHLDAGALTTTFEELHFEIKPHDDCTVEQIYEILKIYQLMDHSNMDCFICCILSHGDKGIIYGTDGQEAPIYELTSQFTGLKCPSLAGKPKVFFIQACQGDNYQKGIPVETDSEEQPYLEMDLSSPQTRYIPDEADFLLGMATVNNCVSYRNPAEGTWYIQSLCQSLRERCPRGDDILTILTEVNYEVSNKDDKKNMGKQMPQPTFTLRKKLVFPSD

T8: Caspase-3, P42574
T8 chain: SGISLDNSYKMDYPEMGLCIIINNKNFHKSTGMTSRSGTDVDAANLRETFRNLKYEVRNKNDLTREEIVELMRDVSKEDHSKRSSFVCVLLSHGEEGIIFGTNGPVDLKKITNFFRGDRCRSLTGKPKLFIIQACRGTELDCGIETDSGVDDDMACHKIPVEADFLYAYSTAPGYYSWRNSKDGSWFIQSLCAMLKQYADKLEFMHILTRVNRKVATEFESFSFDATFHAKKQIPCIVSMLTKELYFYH

T9: Caspase-9, P55211
T9 chain: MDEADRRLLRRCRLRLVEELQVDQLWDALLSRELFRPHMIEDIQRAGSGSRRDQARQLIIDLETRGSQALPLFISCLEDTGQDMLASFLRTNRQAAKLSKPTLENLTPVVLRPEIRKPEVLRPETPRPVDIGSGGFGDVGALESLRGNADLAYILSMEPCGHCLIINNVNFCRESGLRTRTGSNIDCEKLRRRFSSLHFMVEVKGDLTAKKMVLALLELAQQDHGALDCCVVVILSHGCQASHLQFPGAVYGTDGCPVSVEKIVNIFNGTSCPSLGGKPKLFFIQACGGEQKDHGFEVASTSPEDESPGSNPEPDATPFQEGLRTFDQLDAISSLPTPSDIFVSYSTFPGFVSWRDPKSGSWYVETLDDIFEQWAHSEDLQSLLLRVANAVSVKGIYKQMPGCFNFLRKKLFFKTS

T10: calpain I from porcine erythrocytes (porcine), P35750
T10 chain: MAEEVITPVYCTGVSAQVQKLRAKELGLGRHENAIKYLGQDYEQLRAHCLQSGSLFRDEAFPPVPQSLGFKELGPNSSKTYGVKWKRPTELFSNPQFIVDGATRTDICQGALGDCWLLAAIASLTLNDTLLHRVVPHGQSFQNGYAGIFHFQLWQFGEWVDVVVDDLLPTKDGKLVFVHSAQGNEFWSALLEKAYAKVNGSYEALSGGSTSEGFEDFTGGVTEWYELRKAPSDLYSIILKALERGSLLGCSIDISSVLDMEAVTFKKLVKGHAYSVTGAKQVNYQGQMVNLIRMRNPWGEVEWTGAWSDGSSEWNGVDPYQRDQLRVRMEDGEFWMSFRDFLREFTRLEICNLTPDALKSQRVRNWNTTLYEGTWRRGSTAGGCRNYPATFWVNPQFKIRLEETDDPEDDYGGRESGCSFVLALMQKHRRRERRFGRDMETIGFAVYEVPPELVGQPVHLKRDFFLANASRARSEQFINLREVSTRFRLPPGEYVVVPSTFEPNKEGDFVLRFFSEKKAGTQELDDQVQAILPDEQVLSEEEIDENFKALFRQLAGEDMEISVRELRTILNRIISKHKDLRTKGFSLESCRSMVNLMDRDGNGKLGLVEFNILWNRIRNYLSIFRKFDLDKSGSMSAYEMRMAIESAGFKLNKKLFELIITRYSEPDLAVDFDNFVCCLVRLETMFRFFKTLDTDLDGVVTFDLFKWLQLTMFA

T11: Caspase-2, P42575
T11 chain: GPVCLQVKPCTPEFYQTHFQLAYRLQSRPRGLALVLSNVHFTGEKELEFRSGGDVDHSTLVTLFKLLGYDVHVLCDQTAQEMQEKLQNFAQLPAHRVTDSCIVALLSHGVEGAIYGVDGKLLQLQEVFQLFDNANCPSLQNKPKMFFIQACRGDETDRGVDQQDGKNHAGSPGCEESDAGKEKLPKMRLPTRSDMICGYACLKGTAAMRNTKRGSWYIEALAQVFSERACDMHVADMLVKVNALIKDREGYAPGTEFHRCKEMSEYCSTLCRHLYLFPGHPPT

T12: Caspase-7, P55210
T12 chain: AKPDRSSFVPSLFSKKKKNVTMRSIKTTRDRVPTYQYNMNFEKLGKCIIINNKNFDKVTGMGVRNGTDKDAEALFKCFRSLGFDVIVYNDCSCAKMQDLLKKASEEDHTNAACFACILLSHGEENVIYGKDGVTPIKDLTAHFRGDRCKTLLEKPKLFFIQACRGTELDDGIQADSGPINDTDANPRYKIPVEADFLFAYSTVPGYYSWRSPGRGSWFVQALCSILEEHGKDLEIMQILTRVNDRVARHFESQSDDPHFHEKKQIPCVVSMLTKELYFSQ

T13: Caspase-10, Q92851
T13 chain: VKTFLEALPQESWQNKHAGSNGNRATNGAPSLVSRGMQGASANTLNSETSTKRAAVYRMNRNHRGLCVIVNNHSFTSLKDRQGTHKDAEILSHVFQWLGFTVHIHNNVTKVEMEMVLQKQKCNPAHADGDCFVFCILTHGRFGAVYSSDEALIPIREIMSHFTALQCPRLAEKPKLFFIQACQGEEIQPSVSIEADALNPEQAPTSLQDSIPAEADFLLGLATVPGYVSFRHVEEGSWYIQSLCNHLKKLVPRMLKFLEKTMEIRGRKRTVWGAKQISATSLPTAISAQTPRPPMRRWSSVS


How the values were obtained:
Experiment in all cases: cell-based or functional assay
Caspase-6 = target: T1, Caspase-6
Caspase-8 = Caspase-8 (UniProt Q14790)
Caspase-3 = target: T2, Caspase-3
Caspase-7 = target: T3, Caspase-7
Caspase-10 = target: T4, Caspase-10
Caspase-9 = Caspase-9 (UniProt P55211)
Caspase-2 = target: T5, Caspase-2
Caspase-6, P55212 = target: T6, Caspase-6, P55212
Cathepsin B = target: Cathepsin B
Caspase-8, Q14790 = target: T7, Caspase-8, Q14790
Caspase-3, P42574 = target: T8, Caspase-3, P42574
Caspase-9, P55211 = target: T9, Caspase-9, P55211
[1] = target: T10, calpain I from porcine erythrocytes …
Caspase-2, P42575 = target: T11, Caspase-2, P42575
Caspase-7, P55210 = target: T12, Caspase-7, P55210
Caspase-10, Q92851 = target: T13, Caspase-10, Q92851

Binder | k2 (Caspase-6) [M⁻¹ s⁻¹] | k2 (Caspase-8) [M⁻¹ s⁻¹] | k2 (Caspase-3) [M⁻¹ s⁻¹] | k2 (Caspase-7) [M⁻¹ s⁻¹] | k2 (Caspase-10) [M⁻¹ s⁻¹] | k2 (Caspase-9) [M⁻¹ s⁻¹] | k2 (Caspase-2) [M⁻¹ s⁻¹] | k2 (Caspase-6, P55212) [M⁻¹ s⁻¹] | k2 (Cathepsin B) [M⁻¹ s⁻¹] | k2 (Caspase-8, Q14790) [M⁻¹ s⁻¹] | k2 (Caspase-3, P42574) [M⁻¹ s⁻¹] | k2 (Caspase-9, P55211) [M⁻¹ s⁻¹] | k2 [1] [M⁻¹ s⁻¹] | k2 (Caspase-2, P42575) [M⁻¹ s⁻¹] | k2 (Caspase-7, P55210) [M⁻¹ s⁻¹] | k2 (Caspase-10, Q92851) [M⁻¹ s⁻¹]
Cbz-IET[AAsp]-{CH═CH‑CON(CH3)CH2Ph} (SMILES CC[C@H](C)[C@H](NC(=O)OCc1ccccc1)C(=O)N[C@@H](CCC(=O)O)C(=O)N[C@H](C(=O)NN(CC(=O)O)C(=O)/C=C/C(=O)N(C)Cc1ccccc1)[C@@H](C)O) [Cbz-Ile-Glu-Thr-AAsp-CH═CH-CON(CH3)CH2Ph] | 45900 | 59700 | 6000 | 390 | 8500 | 845 | 95 |  |  |  |  |  |  |  |  | 
Cbz-IET[AAsp]-{CH═CH‑CON(CH3)CH2CH2Ph} (SMILES CC[C@H](C)[C@H](NC(=O)OCc1ccccc1)C(=O)N[C@@H](CCC(=O)O)C(=O)N[C@H](C(=O)NN(CC(=O)O)C(=O)/C=C/C(=O)N(C)CCc1ccccc1)[C@@H](C)O) [Cbz-Ile-Glu-Thr-AAsp-CH═CH-CON(CH3)CH2CH2Ph] |  | 60500 | 5480 | 1020 | 8770 | 760 | 38 |  |  |  |  |  |  |  |  | 
Cbz-IET[AAsp]-{CH═CH‑CON(CH2Ph)2} (SMILES CC[C@H](C)[C@H](NC(=O)OCc1ccccc1)C(=O)N[C@@H](CCC(=O)O)C(=O)N[C@H](C(=O)NN(CC(=O)O)C(=O)/C=C/C(=O)N(Cc1ccccc1)Cc1ccccc1)[C@@H](C)O) [Cbz-Ile-Glu-Thr-AAsp-CH═CH-CON(CH2Ph)2] | 83900 | 39500 | 9570 | 1140 | 7930 | 1930 | 76 |  |  |  |  |  |  |  |  | 
LETD (modifications not checked) [Cbz-Leu-Glu-Thr-AAsp-CH═CH-COOEt] |  |  |  |  |  |  |  | 18700 | < 10 | 237000 | 5560 | 37 | < 10 |  |  | 
DEVD (modifications not checked) [Cbz-Asp-Glu-Val-AAsp-CH═CH-COOEt (trans)] |  |  |  |  |  |  |  | 35600 |  | 273000 | 2.13e+06 |  |  | 2640 | 239000 | 49900
DEVD (modifications not checked) [Cbz-Asp-Glu-Val-AAsp-CH═CH-COOCH2Ph] |  |  |  |  |  |  |  | 8470 |  | 121000 | 1.7e+06 |  |  |  | 114000 | 28300
DEVD (modifications not checked) [Cbz-Asp-Glu-Val-AAsp-CH═CH-CONHCH2Ph] |  |  |  |  |  |  |  | 3210 |  | 78200 | 1.75e+06 | 2010 |  |  | 249000 | 19400
